In patent EP4669352A1 one finds Kd and koff data, which are given here for two molecules.

Experiment [1] addresses D8 protein (vaccinia virus).
For experiment [2], the target named is D8 protein (vaccinia virus). In words: BLI (Octet).
The target of experiment [3] is D8 protein (vaccinia virus). This is another data set of the same source.

Where two headings read alike, the source gives them in different places.

B1: MV49 (antibody, V domains shown)
VH: QVQLQESGGGLVQPGGSLRLSCAASGFTFSNSWMNWVRQAPGKGPEWVARIKRKADGETADYAASVKGRFAVSRDDSKNTLYLQINSLKSEDTAVYYCTTVPPLYDLFYRGAYYFDSWGQGVLITVSS
VL: QPVLTQPPSVSGSPGQSVTISCTGTSSDIGGYKYVSWYQQHPGTAPKLMIYEVNKRPSGVSDRFSGSKSGNTASLTISGLQAEDEADYYCSAYSTSRTYIFGPGTRVTVL
B1 returned a Kd in experiment [1] of 0.011 nM.

B2: MV33 (antibody, V domains shown)
VH: EAQLVESGGGLVHPGGSLRLSCEVSGFTFSNSWMNWVRQAPGKGLECVARIIRNADGETADYAASVRGRFTISRDDPENTLYLRMKSLKTEDTAVYYCTTVPPLSHLFFHETYYFDYWGQGVLVTVSS
VL: QAARTQSPSMSASPGQSVTISCTGTRNDIGGYNYVSWYQQYPGKAPKLMIYDVSKRPSGVSDRFSGSKSGNTASLTISGLQAEDEANYYCSSYAGSNTYVFGSGTKLTIL
On to B2, for which the Kd in experiment [2] is under 0.001 nM. Also, in experiment [3], the koff is under 1e-07 s⁻¹.
